Values joined by “and” are separate entries in the source; they are usually repeats but may differ in a detail not shown here. Equal values may be shown once. Blank lines part the entries; values can stand above or below the molecule they belong to.
Assays:
Experiment in all cases: two-hybrid; BACTH in E. coli BTH101, same co-transformants; β-galactosidase activity in Miller units, mean of 3 independent assays; negative control with empty vectors 86 ± 11 Miller units
[1] = target: AftB (Corynebacterium glutamicum ATCC 13032) (UniProt Q8NLR0)
[2] = target: AftC (Corynebacterium glutamicum ATCC 13032) (UniProt Q8NPB7)
[3] = target: AftA (Corynebacterium glutamicum ATCC 13032) (UniProt Q8NTW4)
[4] = target: DprE2 (Corynebacterium glutamicum ATCC 13032)
[5] = target: WecA (Corynebacterium glutamicum ATCC 13032)
[6] = target: Emb (Corynebacterium glutamicum ATCC 13032)
[7] = target: UbiA (Corynebacterium glutamicum ATCC 13032)
[8] = target: the molecule itself

Molecule: DprE1 (enzyme)
β-galactosidase activity [4]: 637 Miller units and 1030 Miller units

B1: AftA (enzyme, Corynebacterium glutamicum ATCC 13032, UniProt Q8NTW4 1-661, looked up)
chain: MNPYGPSRVPEGEVYRPDRLNRKATLVAIVGAAILAFAFALVLWMGLKQTNLPAFGPSNVTRAVASATIAAVLIVTGFLTWLWLRDEHQSNPRWELEDVKPRPKWRTALTYLASYLSPAALVVAVLAIPLSATRLYLDGISVDQGFRTQFLTRMADDIGLSDMNYIDMPTFYPAGWFWLGGRLANLLGLPGWEAFQPWAIVSMAVAASVLVPVWQRITGSLPVATGIALVTTCIILAMNSEEPYAAIVAMGIPAMLVLASRIAKGDKFALAGGIIYLGVSATFYTLFTGAIALSAVAVCIVVAAIVQRSIKPLLWLAVLGGGSIVIALISWGPYLLASINGAERSGDSATHYLPLEGTQFPVPFLASSVVGLLCLVGLIYLVVRFHNNEVRAMWVGIAVFYAWMGMSMAITLLGNTLLGFRLDTVLVLIFATAGVLGIADFRLASVYQLYPTQITERTATHLTNLIVVLVLLGGLYYAQDLPQKNARAIDLAYTDTDGYGERADLYPAGAARYYKDINDHLLDQGFEPSETVVLTDELDFMSYYPYRGYQAFTSHYANPLGEFGNRNAFIEDLAIRSWDELADPQQFSDALNTSPWTIPEVFIFRGSIDDPDAGWKYDVAEDLYPNNPNVRFRGVYFNPESFDQMWQTKQVGPFVVVTHNE
notes: AftA, arabinofuranosyltransferase, transmembrane, Corynebacterium glutamicum ATCC 13032; gene amplified from genomic DNA; One molecule for all four fusion forms; also called arabinofuranosyltransferase AftA; AftA-T25^N; source: E. coli BTH101, bacterial two-hybrid (BACTH) fusion; not shown: T25 or T18 fragment of Bordetella pertussis adenylate cyclase, N-terminal or C-terminal (each tested), kept
β-galactosidase activity [8]: 714 Miller units

B2: AftC (enzyme, Corynebacterium glutamicum ATCC 13032, UniProt Q8NPB7 1-418, looked up)
chain: MSFSPVAPSISAPTPRRSRWDSIGNAVAWPLAMLLMAHRFFVLAINGAVTDDFTTVYSALRRFVEGIPVYNEVYHFVDPHYLYNPGATLLLAPLGYITHFTLARWMFIAVNLLAIVLAFGLLTRLSGWALRSMVWPIAIALAMLTETVQNTLIFSNINGILLLMLAIFLWCVVHKKSWLGGLVIGLAILIKPMFLPLLFLPLVKKQWGSLILGILTPVIFNAVAWFLVPGASEYVTRTMPYLGETRDFANSSLPGLAIYFGMPTWMEITWFLIFGAMVGLAVLALLRFRNTEPYFWAATTTGVLLTGVFFLSSLGQMYYSMMIFPMIFTLLGSRSVFHNWVAWVAAYFFLSPDTFTSQRLPDVARWMEFFSATVGWGLLIVVTFVSALIWFIGDIRAKGTPSSPITTDPTHDHLERTA
notes: AftC, arabinofuranosyltransferase, transmembrane, Corynebacterium glutamicum ATCC 13032; gene amplified from genomic DNA; One molecule for all four fusion forms; also called arabinofuranosyltransferase AftC; AftC-T25^C; source: E. coli BTH101, bacterial two-hybrid (BACTH) fusion; not shown: T25 or T18 fragment of Bordetella pertussis adenylate cyclase, N-terminal or C-terminal (each tested), kept
β-galactosidase activity [8]: 398 Miller units

B3: AftB (enzyme, Corynebacterium glutamicum ATCC 13032, UniProt Q8NLR0 1-686, looked up)
chain: MTFSPQRPEFETGKQPDPETEHAGDFFEETSSSAPRAASNGSSGPNYTLITTFLAALTAGIFAFWAGWTRKWISDDGLIVLRTVRNLLAGNGPVFNAGERVEANTSTLWQYCIYLVALVTDYRLEDIALWLALLFTTAASIIGVLGTAHLHRKRIAVLLPAGVIGYFSLSPARDFATSGLEWGLSLMWISIQWLLLVLWATSGKTSGKKASGAKTSNPIVNAGAITYALAFWSGLSWLVRPELAMYGGLTGVLLLLTAPRWRVVLGILVAALPLPAAYQIFRMGYYGLMVPHTAVAKSASDAVWGTGWEYVEDFTGPYNLWLGLALLLAAGALTVWKTDKHLAIPKGRLGLRTPGMAIALLVICALVHFLYVIRVGGDFMHGRMLLLPLFAILLPVSVIPVNVVDRGWQDLVALVLVFSTWVWSTVVFVQGHQWENTGQHVVDERDFWIDFTNRDEDHPPLYAEDFLTVDSMNDYAEVMRDQTLVNPTGQQLNILASSDPTTYSWITTPRVEGVEAGDLANLSPTVFHVNLGMTSMNAPLNVRVTDLIGLATPLAARQPRIEGGRIGHDKLMDLEWQVAESATPLAYTPGWLDTQKTYEARQALRHPELVHLFQTYREPMSYHRFVDNIKYALTTGRTLEISDNPEDLLKEFNPTPAEIQDGLETIAWPGEIKLDEPRGEPLYSSQ
notes: AftB, arabinofuranosyltransferase, transmembrane, Corynebacterium glutamicum ATCC 13032; gene amplified from genomic DNA; One molecule for all four fusion forms; also called arabinofuranosyltransferase AftB; AftB-T25^N; source: E. coli BTH101, bacterial two-hybrid (BACTH) fusion; not shown: T25 or T18 fragment of Bordetella pertussis adenylate cyclase, N-terminal or C-terminal (each tested), kept
β-galactosidase activity [8]: 1180 Miller units

Other lines, results leading:

β-galactosidase activity [1]: 1020 Miller units | β-galactosidase activity [2]: 755 Miller units | β-galactosidase activity [3]: 387 Miller units
Molecule: UbiA (enzyme)

β-galactosidase activity [1]: 1080 Miller units | β-galactosidase activity [2]: 1050 Miller units | β-galactosidase activity [5]: 487 Miller units | β-galactosidase activity [6]: 1350 Miller units | β-galactosidase activity [7]: 1020 Miller units
Molecule: WecA (enzyme)

β-galactosidase activity [7]: 1090 Miller units and 1200 Miller units
Molecule: WbbL (enzyme)

Reference: paper PMC4213368, “Elucidation of a protein-protein interaction network involved in Corynebacterium glutamicum cell wall biosynthesis as determined by bacterial two-hybrid analysis” (Glycoconjugate Journal, 2014)
